# Tested on: TO-3-N3 (biotin conjugate)
# Experiment: pull-down binding Z-score (relative to library population); higher = stronger binding
# Settings: RNA library: Library-2
# How it was run: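 Cy5- or Cy3-end-labelled RNA library (1 μg) was heat-folded in phosphate/NaCl/KCl buffer and incubated 60 min at 25 °C with streptavidin beads carrying 100 pmol biotin-conjugated small molecule. After three washes, bound RNA was eluted in hot SDS and hybridised 20 h at 55.5 °C to a DNA barcode microarray. Binding was scored by subtracting a beads-only control, averaging barcoded replicate probes after dropping highest and lowest, and converting to a Z-score against library mean and standard deviation.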
row,Sequence,pull-down binding Z-score
1,AGUGUUUGCCUAGGUUCUUUAAUCUACUCAACCGCU,-0.346
2,AGUUCAAGAAAUUCAACU,-0.166
3,AGUUCAAGAACUUUACUCUCCAAUUUUUCUUAUUGUUGCGGCAAUAGUGUUUAUAACACUUUGCUUCACACUCAAAAGAAAGACAGAAUGAUUGAACU,-0.889
4,AGUUGCUUACUCUAAUAACU [DMSMaPseq_invitro_SARS-CoV-2_Motif_421],-0.129
5,AGUUGUGAUCAACU,-0.744
6,AGUUUACGCCCUGACACACGUUAUGUGCUCAUGGAUGGCU,-0.721
7,AGUUUUUGUACACAAUUAAACCGUGCUUUAACU,-0.534
8,AUAAAAUAGAAGAAUUAUUCUAUUCUUAU,-0.26
9,AUAAACCACCCAUUAGUUUUCCAUUGUGUGCUAAUGGACAAGUUUUUGGUUUAU,-0.734
10,AUAAAGAAAUGUAUCUAAAGUUGCGUAGUGAUGUGCUAUUACCUCUUACGCAAUAUAAUAGAUACUUAGCUCUUUAU,-0.341
11,AUAACAAUACUAGAUGGAAUUUCACAGUAUUCACUGAGACUCAUUGAUGCUAUGAUGUUCACAUCUGAUUUGGCUACUAACAAUCUAGUUGU,0.311
12,AUAAGAAAGACAAUUCUUAU [DMSMaPseq_invitro_SARS-CoV-2_Motif_114],-0.755
13,AUAAUAAGAGGCUGGAUUUUUGGUACUACUUUAGAUUCGAAGACCCAGUCCCUACUUAUUGU,-0.735
14,AUACCACUUAUGUACAAAGGACUUCCUUGGAAUGUAGUGCGUAU,-0.527
15,AUACCUGCACGUGCUCGUGUAGAGUGU,0.0809
16,AUAGAUUAUGUACCACUAAAGUCUGCUACGUGUAUAACACGUUGCAAUUUAGGUGGUGCUGUCUGU,-0.766
17,AUAUAACUUCUAAAGAAACUUUGUAU,-0.911
18,AUAUGUUUACACCACUAAUUCAACCUAUUGGUGCUUUGGACAUAU [DMSMaPseq_invitro_SARS-CoV-2_Motif_171],-0.425
19,AUCAAGACUAUUCAACCAAGGGUUGAAAAGAAAAAGCUUGAU,-0.561
20,AUCACUAGGUUUCAAACUUUACUUGCUUUACAUAGAAGUUAUUUGACUCCUGGUGAU,-0.735
21,AUCCGAUUUACAGGAU,-0.684
22,AUCUACAAUGAU [DMSMaPseq_invitro_SARS-CoV-2_Motif_243],-0.553
23,AUCUGAAUUCUUCUAGAGUUCCUGAU,0.655

row,Sequence,pull-down binding Z-score
1,AUCUUAGGGAAUUUGUGUUUAAGAAUAUUGAUGGUUAUUUUAAAAUAUAUUCUAAGCACACGCCUAUUAAUUUAGUGCGUGAUCUCCCUCAGGGU,-0.775
2,AUCUUCUGCAGGCUGCUUACGGUUUCGUCCGUGUUGCAGCCGAUCAUCAGCACAUCUAGGUUUUGUCCGGGUGUGACCGAAAGGUAAGAU [DMSMaPseq_invitro_SARS-CoV-2_Multi_2_ComplexLevel_1],-0.599
3,AUCUUUCUGUGCUUUUGCUGUAGAUGCUGCUAAAGCUUACAAAGAU,0.238
4,AUGAACCACAAAUCAU [DMSMaPseq_invitro_SARS-CoV-2_Motif_444],0.463
5,AUGAAUCUCUCAU [SHAPE_invivo_SARS-CoV-2_Motif_473],-0.104
6,AUGAGAAGUGCUCUGCCUAUACAGUUGAACUCGGUACAGAAGUAAAUGAGUUCGCCUGUGUUGUGGCAGAUGCUGUCAU [SHAPE_invitro_SARS-CoV-2_Motif_53],-0.626
7,AUGAGGUUUAGAAGAGCUUUUGGUGAAUACAGUCAUGUAGUUGCCUUUAAUACUUUACUAUUCCUUAU,-0.216
8,AUGAGUACGAACUUAUGUACUCAU,-0.0199
9,AUGAUGUUUCUUUUUUAGCACAU,-0.696
10,AUGCAUUCUGCAU [SHAPE_invivo_SARS-CoV-2_Motif_273],-0.0791
11,AUGCCAACUAUUUUCUUUGCUGGCAU,-0.81
12,AUGCCUUUUUACCUUUUGCUAUGGGUAUUAUUGCUAUGUCUGCUUUUGCAAUGAUGUUUGUCAAACAUAAGCAUGCAU [DMSMaPseq_invitro_SARS-CoV-2_Multi_36_ComplexLevel_1],0.159
13,AUGCUGACGAUGGUCAUUUUGUCAGCAU [IAV_invivo_M1_M2_7_Motif_18+IAV_invivo_M1_M2_7_Motif_18],0.0275
14,AUGCUGUUACAGCGU,-0.973
15,AUGCUUGGAACAGGAAGAGAAUCAGCAACUGUGUUGCUGAUUAUUCUGUCCUAUAUAAUUCCGCAU [DMSMaPseq_invitro_SARS-CoV-2_Motif_399],-0.314
16,AUGGCCCCGAUUUCAGCUAU [SHAPE_invivo_SARS-CoV-2_Motif_151],-0.51
17,AUGGCUGAUCAAGCUAU [DMSMaPseq_invitro_SARS-CoV-2_Motif_216],-0.238
18,AUGGUAAGUGCGAUACUUACCUG [U1snRNP5ss-24],-0.32
19,AUGGUCUUUGUUCUUUUUUUUGUAUGAAAAUGCCUUUUUACCUUUUGCUAUGGGUAUUAUUGCUAU,-0.455
20,AUGGUGCUAACAAAGACGGCAUCAU [SHAPE_invivo_SARS-CoV-2_Motif_545],0.0674
21,AUGGUUAUCUUACUUCUUCUUCUAAAACACCUGAAGAACAUUUUAUUGAAACCAU,-0.93
22,AUGUACAUCUUCUUUGCAUCAUUUUAUUAUGUAUGGAAAAGUUAUGUGCAU,-1.16
23,AUGUACUUGGAUUGGCUGCAAUCAUGCAAUUGUUUUUCAGCUAUUUUGCAGUACAU,-0.182

row,Sequence,pull-down binding Z-score
1,AUGUCAUAUUGGAGUUGGACUGCAGGGCUUCCUUUACACAAUAAAUAUUGUAUGAAGUGCUGAUGUAACCUUUACUGCAGCAUGACAU [hsa-mir-3976],0.131
2,AUGUUUGUCAAACAUAAGCAU [DMSMaPseq_invitro_SARS-CoV-2_Motif_200],-0.651
3,AUUACUGCAAAAUGGUAUGAAUGGACGUACCAUAUUGGGUAGU [DMSMaPseq_invitro_SARS-CoV-2_Motif_194],0.151
4,AUUAGAGAAAACAACAGAGUUGUUAUUUCUAGU [DMSMaPseq_invitro_SARS-CoV-2_Motif_378],0.0547
5,AUUAUGAGGACUUUUAAAGUUUCCAUUUGGAAUCUUGAUUACAUCAUAAACCUCAUAAU,-1.1
6,AUUAUGUGUACCUUCCUUACCCAGAUCCAUCAAGAAUCCUAGGGGCCGGCUGUUUUGUAGAUGAUAUCGUAAAAACAGAUGGUACACUUAUGAU [DMSMaPseq_invitro_SARS-CoV-2_Multi_47_ComplexLevel_1],-0.234
7,AUUCUAUUCUAUUCUAUUCU [r(AUUCU)4],1.33
8,AUUCUGAAGUUGUUCUUAAAAAGUUGAAGAAGUCUUUGAAU [DMSMaPseq_invitro_SARS-CoV-2_Motif_213],-0.963
9,AUUGACAUUAAUGGCAAUCUUCAUCCAGAUUCUGCCACUCUUGUUAGU [DMSMaPseq_invitro_SARS-CoV-2_Motif_73],-0.785
10,AUUGGCGACCCUGCUCAAU [DMSMaPseq_invitro_SARS-CoV-2_Motif_311],0.191
11,AUUGGUGCAGGUAUAUGCGCUAGU,-0.974
12,AUUGUUACAUAAACCUAUUGUUUGGCAUGUUAACAAU,-0.915
13,AUUGUUCAACUUAGUGAAAUUAGUAUGGACAAU,0.851
14,AUUGUUGUCGCUUCCAAGAAAAGGACGAAGAUGACAAU [DMSMaPseq_invitro_SARS-CoV-2_Motif_245],0.287
15,AUUUGAACUCUACUAAUGUCACUAUUGCAACCUACUGUACUGGUUCUAUACCUUGUAGUGUUUGUCUUAGUGGUUUAGAU,-0.873
16,AUUUUUCUAAACUGAUAAAU [DMSMaPseq_invitro_SARS-CoV-2_Motif_131],-0.374
17,CAAAUGUGCCUUUCAACUCUCAUGAAGUGUGAUCAUUGUGGUGAAACUUCAUGGCAGACGGGCGAUUUUG,-0.685
18,CAACAAAAGUUG [SHAPE_invivo_SARS-CoV-2_Motif_413],-0.893
19,CAACAAUGUGUGAUAUCAGACAACUACUAUUUGUAGUUGAAGUUGUUG,-0.133
20,CAACCUAAAUAGAGGUAUG,-0.399
21,CAACGGUACUAUUACCGUUG,-0.275
22,CAACGUAAGUUG [DMSMaPseq_invitro_SARS-CoV-2_Motif_215],-0.34
23,CAACUCUCAUGAAGUGUGAUCAUUGUGGUGAAACUUCAUGGCAGACGGGCGAUUUUGUUAAAGCCACUUGCGAAUUUUG,-0.573

# Reference: the supplement of paper PMC11865577
